Experimental data from patent US20070196337A1, “RECOMBINANT PERFORIN, EXPRESSION AND USES THEREOF” (priority 2004, published 2007).

B1: recombinant human A91V: recombinant human A91V perforin from the baculovirus expression system (protein, UniProt P14222 22-555, looked up, variant A91V)
Perforin-1: PCHTAARSECKRSHKFVPGAWLAGEGVDVTSLRRSGSFPVDTQRFLRPDGTCTLCENALQEGTLQRLPLVLTNWRAQGSGCQRHVTRAKVSSTEAVARDAARSIRNDWKVGLDVTPKPTSNVHVSVAGSHSQAANFAAQKTHQDQYSFSTDTVECRFYSFHVVHTPPLHPDFKRALGDLPHHFNASTQPAYLRLISNYGTHFIRAVELGGRISALTALRTCELALEGLTDNEVEDCLTVEAQVNIGIHGSISAEAKACEEKKKKHKMTASFHQTYRERHSEVVGGHHTSINDLLFGIQAGPEQYSAWVNSLPGSPGLVDYTLEPLHVLLDSQDPRREALRRALSQYLTDRARWRDCSRPCPPGRQKSPRDPCQCVCHGSAVTTQDCCPRQRGLAQLEVTFIQAWGLWGDWFTATDAYVKLFFGGQELRTSTVWDNNNPIWSVRLDFGDVLLATGGPLRLQVWDQDSGRDDDLLGTCDQAPKSGSHEVRCNLNHGHLKFRYHARCLPHLGGGTCLDYVPQMLLGEPPGNRSGAVW
modifications: baculovirus-expressed
notes: recombinant human A91V perforin from the baculovirus expression system
B2: WT-Pfp: wild type mouse perforin, recombinantly expressed; in b333 WT perforin is recombinant human (protein)
chain: PCYTATRSECKQKHKFVPGVWMAGEGMDVTTLRRSGSFPVNTQRFLRPDRTCTLCKNSLMRDATQRLPVAITHWRPHSSHCQRNVAAAKVHSTEGVAREAAANINNDWRVGLDVNPRPEANMRASVAGSHSKVANFAAEKTYQDQYNFNSDTVECRMYSFRLVQKPPLHLDFKKALRALPRNFNSSTEHAYHRLISSYGTHFITAVDLGGRISVLTALRTCQLTLNGLTADEVGDCLNVEAQVSIGAQASVSSEYKACEEKKKQHKMATSFHQTYRERHVEVLGGPLDSTHDLLFGNQATPEQFSTWTASLPSNPGLVDYSLEPLHTLLEEQNPKREALRQAISHYIMSRARWQNCSRPCRSGQHKSSHDSCQCECQDSKVTNQDCCPRQRGLAHLVVSNFRAEHLWGDYTTATDAYLKVFFGGQEFRTGVVWNNNNPRWTDKMDFENVLLSTGGPLRVQVWDADYGWDDDLLGSCDRSPHSGFHEVTCELNHGRVKFSYHAKCLPHLTGGTCLEYAPQGLLGDPPGNRSGAVW

Tests used:
[1] = Lytic activity of purified recombinant (baculovirus) perforin; assay type: biochemical; details: baculovirus expression system
Text: (§1) Perforin cDNA was cloned into the pFastBac vector and overexpressed in Sf-21 cells cultured in SF900-II SFM medium using a Bac-to-Bac kit (Invitrogen) and perforin was purified, all according to the manufacturer's instructions. Small amounts of recombinant WT and the G428E perforin mutant protein were obtained.

[2] = Storage stability of purified recombinant perforin at 4° C.; details: purified recombinant human perforin, storage at 4° C.
Jurkat cells = assay: Lysis of Jurkat cells by RBL granule extracts, 4 hour 51Cr release; assay type: cell-based; details: granules diluted 1/32
Procedure: WT-Pfp, P5-Pfp or P6-Pfp was isolated from the RBL granules by nitrogen caviatation and percoll density fractionation of the cellular contents as described by Davis et al (J Immunol Methods. 2003, 276(1-2):59-68). RBL cells (1×10^9) were washed three times in PBS, then resuspended at 1×10^8/ml in relaxation buffer (100 mM KCL, 3.5 mM MgCl2, 1 mM PIPES pH 6.8, 1.25 mM EGTA) and lysed in a nitrogen cavitation apparatus at 450 psi for 20 minutes at 4° C. on a rotating platform. The cell lysate was collected following sudden decompression, and the nuclei removed by centrifugation at 2000 rpm for 10 minutes at 4° C. The nuclei were washed twice with 1 ml relaxation buffer and the supernatants were pooled with the supernatant from the first wash. The pooled supernatants were centrifuged at 2000 rpm for a further 5 minutes to remove all cell debris. A 40% percoll density gradient was then formed by mixing 8 ml of adjusted percoll (45 ml percoll and 5 ml 10× relaxation buffer) with 12 ml of relaxation buffer, containing lmM ATP. 5 ml of cell lysate was loaded onto each gradient and centrifuged at 20,000 rpm for 35 minutes at 4° C. The cytotoxic granules, which migrate to the dense region of the gradient, were collected by harvesting 1 ml fractions from the bottom of the gradient using a long spinal tap needle attached to a syringe. The fractions were concentrated (individually) in an ultracentrifuge (Beckman Coulter) at 100,000 rpm for 3 hours at 4° C. and the granules obtained from the surface of the pelleted percoll by washing them into a small volume of resuspension buffer. To release the perforin, the granules were disrupted by resuspension in an equal volume of 2 M NaCl and three cycles of freezing in liquid nitrogen and thawing in a 37° C. waterbath.
Jurkat cells were labelled with 50 μCi ^51Chromium in 100 ul unsupplemented RPMI medium at 37° C. for 1 hour. ^51Cr-labelled cells were then resuspended in HBSS buffer (CSL Ltd.) with or without 2 mM EGTA. […] Granule fraction #8 (determined by western analysis to contain the highest perforin content) was serially diluted in HE buffer and incubated with target cells in a final volume of 200 μl, for 4 hours at 37° C. The spontaneous release of ^51Cr was determined by incubating the target cells with HE buffer alone and the maximum release was determined by adding HCl to a final concentration of 1 M. After 4 hours, the plates were centrifuged at 1500 rpm, 100 μl of supernatant was harvested and the released radioactivity was measured in a Wizard 1470 Gamma counter. Cytotoxicity was expressed as a percentage specific ^51Cr release after subtracting spontaneous release. The percent specific lysis was calculated as follows: 100× [(experimental release—spontaneous release)/(maximum release—spontaneous release)].

sheep RBC membranes = assay: Calcium-dependent membrane binding of recombinant perforin; details: 1 mM CaCl2, sheep RBC
Procedure: as §1
To study the calcium-dependent membrane binding of perforin, 2×10^6 sheep RBCs were resuspended in 200 μL 20 mM Hepes-150 mM NaCl buffer (pH 7.4) supplemented with 1 mM CaCl2. An aliquot of the purified perforin was added to the cell suspension for 5 min on ice. The cells were pelleted at 16,000 g for 10 s, the supernatant promptly removed, and the cells lysed in ice cold water. The lysate was centrifuged for 20 min at 16,000 g at 4° C. The pellet was washed once, dissolved in SDS-PAGE loading buffer, and analyzed by Western blotting.

[3] = system: Sheep red blood cells (sRBC); assay: Erythrocyte lysis assay with RBL granule extracts, haemoglobin release; assay type: cell-based; details: WT-Pfp at a 1/8 dilution
Procedure: Sheep red blood cells (sRBC) were washed three times then resuspended at 10^8/mL in 150 mM NaCl. For the assay, 50 ul of freeze/thawed granule extract [fraction #8 (see above)] was incubated with 20 μl of the sRBC suspension in the presence of 2 mM CaCl2 at 37° C. for 30 minutes in v-bottom 96 well plates. For maximal haemoglobin release, H2O was used to lyse the red blood cells. Plates were centrifuged at 1500 rpm for 5 minutes and the haemoglobin released into the supernatant was estimated by measuring the optical density at 405 nm. Cell lysis was expressed as a percentage of maximal haemoglobin release.

Row | Molecule | cytolytic activity of recombinant protein relative to WT perforin [1] | stability of lytic activity on storage [2] | specific lysis of Jurkat cells by granules (Jurkat cells) | calcium-dependent plasma membrane binding (sheep RBC membranes) | lysis of sRBC by disrupted granules (haemoglobin release) [3]
1 | B1 | < 10 % of WT | undetectable levels after 48 hours | – | – | –
2 | B2 | – | stable under these storage conditions for several months | approximately 65% | essentially all the added perforin bound | almost complete RBC lysis
